Measured values reported in patent US20210155689A1 (SHANGHAI PHARMAEXPLORER, published 2021).

Tests used:
[1] = molecular target: T1, human LAG-3 on cells (HEK293-hLAG-3 stable cell line) (human, UniProt P18627 23-525); test: FACS, HEK293-hLAG-3, antibody 0.000 nM
T1 sequence: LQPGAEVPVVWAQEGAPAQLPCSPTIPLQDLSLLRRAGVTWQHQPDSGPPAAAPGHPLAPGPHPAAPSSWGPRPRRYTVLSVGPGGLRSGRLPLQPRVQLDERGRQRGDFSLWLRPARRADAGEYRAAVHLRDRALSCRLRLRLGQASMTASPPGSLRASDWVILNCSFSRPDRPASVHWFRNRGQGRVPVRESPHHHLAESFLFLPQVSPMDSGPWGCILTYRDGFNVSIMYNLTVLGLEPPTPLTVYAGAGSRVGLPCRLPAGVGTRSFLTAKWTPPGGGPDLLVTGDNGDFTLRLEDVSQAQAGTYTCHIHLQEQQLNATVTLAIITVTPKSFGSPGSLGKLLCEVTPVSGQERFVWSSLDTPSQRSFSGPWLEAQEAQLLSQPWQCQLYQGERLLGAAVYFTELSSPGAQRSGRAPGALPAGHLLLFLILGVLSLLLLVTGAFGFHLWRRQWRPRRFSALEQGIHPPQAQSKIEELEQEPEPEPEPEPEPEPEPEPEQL
From the text: (§1) The pIRES plasmid with the monkey-derived full-length gene was transfected into the HEK293 cell line to construct a HEK293 stable cell line containing monkey LAG-3 (herein referred to as HEK293-cLAG-3 stable cell line). The HEK293-hLAG-3 stable cell line and HEK293-cLAG-3 stable cell line were expanded in a T-75 cell culture flask to a 90% confluence. The medium was aspirated, and the cells were washed with HBSS (Hanks' Balanced Salt Solution) 1-2 times, then treated with a enzyme-free cell dissociation fluid (Versene solution: Life technology) and the cells were collected. The cells were washed with HBSS buffer for 1-2 times. After counted, the cells were diluted with HBSS to 1-2×10⁶ cells per ml, added with 1% goat serum blocking solution, incubated on ice for 20-30 minutes, and then washed with HBSS for 2 times by centrifugation. The collected cells were suspended in the FACS buffer (HBSS+1% BSA) to 2×10⁶ cells/ml, added as 100 microliters per well to a 96-well FACS reaction plate, added with 100 microliters per well of the antibody sample to be tested, incubated on ice for 1-2 hours. The plate was washed twice with the FACS buffer by centrifugation, added with 100 microliters of fluorescent (Alexa 488)-labeled secondary antibodies per well, and incubated on ice for 0.5-1.0 hours. The plate was washed 2-3 times with FACS buffer by centrifugation, added with 100 μl fixative solution (4% Paraformaldehyde) per well to suspend the cells. 5-10 minutes later, it was washed 1-2 times with FACS buffer by centrifugation. The cells were suspended with 100 microliters of FACS buffer, FACS (FACSCalibur, BD) was used for detection and the results were analyzed.

[2] = molecular target: T2, monkey LAG-3 on cells (HEK293-cLAG-3 stable cell line) (monkey, UniProt P18627 24-525 (human entry)); test: FACS, HEK293-cLAG-3, antibody 40.000 nM
T2 construct: Full-length monkey (Chinese monkey) LAG-3 gene expressed on HEK293 cells
T2 chain: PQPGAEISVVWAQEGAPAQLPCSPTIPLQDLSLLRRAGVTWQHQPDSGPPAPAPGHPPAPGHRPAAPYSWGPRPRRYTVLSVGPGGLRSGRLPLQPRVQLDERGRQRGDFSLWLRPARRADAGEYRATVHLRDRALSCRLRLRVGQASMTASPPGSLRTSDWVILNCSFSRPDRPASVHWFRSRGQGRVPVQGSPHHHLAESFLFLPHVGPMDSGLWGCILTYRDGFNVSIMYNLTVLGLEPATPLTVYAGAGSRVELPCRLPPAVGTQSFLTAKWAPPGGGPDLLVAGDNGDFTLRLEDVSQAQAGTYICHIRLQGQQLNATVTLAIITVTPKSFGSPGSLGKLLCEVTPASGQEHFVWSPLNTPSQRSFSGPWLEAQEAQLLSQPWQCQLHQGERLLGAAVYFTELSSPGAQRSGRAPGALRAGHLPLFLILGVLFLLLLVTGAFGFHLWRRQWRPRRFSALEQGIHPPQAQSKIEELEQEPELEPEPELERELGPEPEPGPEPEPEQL
From the text: as §1

[3] = molecular target: T1, human LAG-3 on cells (HEK293-hLAG-3 …); test: FACS, HEK293-hLAG-3, antibody 1.600 nM
From the text: as §1

Binder | Mean fluorescence intensity [1] | Mean fluorescence intensity [2] | Mean fluorescence intensity [3]
105F1E10 mouse-human chimeric antibody (antibody, V domains shown, also called mAb009-105F1E10) VH: EVQLQQSGPELVKPGASVKMSCRASGYTFTDFKMHWMKQSHGKSLEWIGYIAPNNGGTAYNQKFRGKATLTVNESSNTAYMELRSLTSEDSAVYYCVDWDDVDYWGQGTTLTVSS VL: DIKMTQSPSSMYASLGERVTITCKASQDINSYLSWFQQKSGKSPKTLIYRANRLVDGVPSRFSGSGSGQDYSLTISSLEYEDMGIYYCLQYVEFPLTFGAGTKLELK | 2.6 | 64.6 | 34.7
405B8H3 mouse-human chimeric antibody (antibody, V domains shown, also called mAb103-405B8H3) VH: QVQLQQSGAELVRPGASVTLSCKASGYTFTDYEMHWVKQTPVHGLEWIGATDPETGNSAYNQKFKGKAIMTADKSSSTAYMELRSLTSEDSAVYYCISTGWNDWGQGTSLTVSS VL: DIKMTQSPSSMYASLGERVTITCKASQDINSYLSWFQQKPGKSPKTLIYRADRLLDGVPSRFSGSGSGQDYSLTISSLEYGDMGIYYCLQYDEFPYTFGGGTKLEIK | 2.8 | 90.8 | 62.3
409B11E12 mouse-human chimeric antibody (antibody, V domains shown, also called mAb104-409B11E12) VH: QVQLQQSGAELVRPGASVTLSCKASGYTFTDYEMHWVKQTTVHGLEWIGATDPETSYSAYNQKFKGKAILTADKSSSTAYMELRSLTSEDSAVYYCIATGWNDWGQGTSLTVSS VL: DLKMTQSPSSMYASLGERVTITCKASQDINSYLSWFQQKPGKSPKTLIYRANRLLDGVPSRFSGSGSGQDYSLTISSLEYEDMGIYYCLQYDEFPYTFGGGTKLEIK | 2.8 | 108 | 69
409D4E10 mouse-human chimeric antibody (antibody, V domains shown, also called mAb112-409D4E10) VH: QVQLQQSGAELVRPGASVTLSCKASGNTFTDYEMHWVKQTPVHGLEWIGATDPETDNTAYNQKFKGKAILTTDKSSSTAYMELRSLTSEDSAVYYCITSGWNDWGQGTSLTVSS VL: DIKMTQSPSSMYASLGERVTITCKASQDINSYLSWFQQKPGKSPKTLIYRANRLLDGVPSRFSGSGSGQDYSLTISSLEYEDMGIYYCLQYNEFPYTFGGGTKLEIK | 3 | 93.4 | 56.8
